Six molecules from paper PMC12691643 can be followed below.

Holding throughout (assay): affinity purification with mass spectrometry; HA-tagged TgWIP variants pulled down by the HA tag from lysates of DC2.4 cells infected 4 h at MOI 7; host partners by mass spectrometry; values are negative fold changes in peptide counts of the mutant immunoprecipitations relative to TgWIP^WT
Assay [1] addresses TgWIP^(PRR2 mut), HA-tagged (Toxoplasma gondii).
The target in assay [2] is TgWIP^(PRR3 mut), HA-tagged (Toxoplasma gondii).
Assay [3] has as its target TgWIP^(WIRS mut), HA-tagged (Toxoplasma gondii).
Assay [4] has as its target TgWIP^Y150A/Y199A, HA-tagged (Toxoplasma gondii).

As to “Abi1, endogenous in murine DC2.4 cells (from UniProt Q8CBW3 1-481) (natural protein)”, the negative fold change in peptide counts relative to TgWIP^WT in assay [1] came to 4 fold; in assay [2], 6 fold; in assay [3], 4 fold; in assay [4] it was 2 fold.

On to “Pstpip1, endogenous in murine DC2.4 cells (from UniProt P97814 1-415) (natural protein)”, for which the negative fold change in peptide counts relative to TgWIP^WT was 8 fold in assay [1], 5 fold in assay [2], 1 fold in assay [3] and 1 fold in assay [4].

“Cyfip1, endogenous in murine DC2.4 cells (from UniProt Q7TMB8 1-1253) (natural protein)”: the negative fold change in peptide counts relative to TgWIP^WT amounted to 2 fold in assay [1], 5 fold in assay [2], 2 fold in assay [3] and 1 fold in assay [4].

Take “Nck2, endogenous in murine DC2.4 cells (from UniProt O55033 1-380) (natural protein)”: the negative fold change in peptide counts relative to TgWIP^WT in assay [1] turned out to be 1 fold; in assay [2] it was 3 fold; in assay [3], 1 fold; in assay [4] it was 1 fold.

B1: Git2, endogenous in murine DC2.4 cells (natural protein)
chain: MSKRLRSSDVCADCNGPDPSWASVNRGTFICDECCSVHRSLGRHISQVRHLKHTAWPPTLLQMVETLYNNGANSIWEHSLLDPASIMSGRRKANPQDKVHPNKAEFIRAKYQMLAFVHRLPCREDDSVTAKDLSKQLHSSVRTGNLETCLRLLSLGAQANFFHPEKGSTPLHVASKAGQILQAELLAVYGADPGTQDSSGKTPVDYARQGGHHELAERLIEIQYELTDRLAFYLCGRKPDHKSGQHFLIPQRADSLDLSELAKAAKKKLQSLSNHLFEELAMDVYDEVDRRETDAVWLATQNHSTLVTETTVVPFLPVNPEYSSTRNQGRQKLARFNAHEFATLVIDILSDAKRRQQGSPLSRSKDNVELILRTVSTQHSTESQDNDQPDYDSVASDEDTDVETRASKANRQKLQTLQSENSSLRRQATASACQVQTGSDHKDTASHSSLKRRPSARGSRPMSMYETGSGQKPYLPMGEASHPEESRTRLQPFPTHIGRSALVTSSSSLPSFPSTLSWSRDESARRASRLEKQNSTPESDYDNTACDPEPDDTGSTRKGRQRSMLWQGDGLLPDTAEPHSVPSPTLPSTEDVIRKTEQITKNIQELLRAAQENKHDSYIPCSERIHVAVTEMAALFPKKPKSDTVRTSLRLLTSSAYRLQSECRKALPGDSSLPTDVQLVTQQVIQCAYDIAKAAKQLVTITTKENSS
As to B1, the negative fold change in peptide counts relative to TgWIP^WT amounted to 2 fold in assay [1], 2 fold in assay [3] and 3 fold in assay [4].

B2: Shp2 (Ptpn11), endogenous in murine DC2.4 cells (natural protein)
chain: MTSRRWFHPNITGVEAENLLLTRGVDGSFLARPSKSNPGDFTLSVRRNGAVTHIKIQNTGDYYDLYGGEKFATLAELVQYYMEHHGQLKEKNGDVIELKYPLNCADPTSERWFHGHLSGKEAEKLLTEKGKHGSFLVRESQSHPGDFVLSVRTGDDKGESNDGKSKVTHVMIRCQELKYDVGGGERFDSLTDLVEHYKKNPMVETLGTVLQLKQPLNTTRINAAEIESRVRELSKLAETTDKVKQGFWEEFETLQQQECKLLYSRKEGQRQENKNKNRYKNILPFDHTRVVLHDGDPNEPVSDYINANIIMPEFETKCNNSKPKKSYIATQGCLQNTVNDFWRMVFQENSRVIVMTTKEVERGKSKCVKYWPDEYALKEYGVMRVRNVKESAAHDYTLRELKLSKVGQGNTERTVWQYHFRTWPDHGVPSDPGGVLDFLEEVHHKQESIVDAGPVVVHCSAGIGRTGTFIVIDILIDIIREKGVDCDIDVPKTIQMVRSQRSGMVQTEAQYRFIYMAVQHYIETLQRRIEEEQKSKRKGHEYTNIKYSLVDQTSGDQSPLPPCTPTPPCAEMREDSARVYENVGLMQQQRSFR
Regarding B2, the results for the negative fold change in peptide counts relative to TgWIP^WT in assay [1] and in assay [4] were 3 fold and 39 fold, respectively.
